Positions of bridges follow the written chain, without caps; N, C: chain ends. Non-standard residues stand in square brackets, D forms with d. *: point of attachment. DOTA = O=C(O)CN1CCN(CC(=O)O)CCN(CC(=O)*)CCN(CC(=O)O)CC1
Molecular target: T1, ACE2 on HEK-293 cells transfected with ACE2 (HEK-ACE2) (UniProt Q9BYF1 18-805)
T1 construct: ACE2 expressed in transfected HEK-293 cells; Expression verified earlier by western blotting (Beyer et al., 2023); also called ACE2-transfected HEK cells; source: HEK-293 cells transfected with ACE2, bought: Innoprot; on cells
T1 sequence (Q9BYF1 18-805): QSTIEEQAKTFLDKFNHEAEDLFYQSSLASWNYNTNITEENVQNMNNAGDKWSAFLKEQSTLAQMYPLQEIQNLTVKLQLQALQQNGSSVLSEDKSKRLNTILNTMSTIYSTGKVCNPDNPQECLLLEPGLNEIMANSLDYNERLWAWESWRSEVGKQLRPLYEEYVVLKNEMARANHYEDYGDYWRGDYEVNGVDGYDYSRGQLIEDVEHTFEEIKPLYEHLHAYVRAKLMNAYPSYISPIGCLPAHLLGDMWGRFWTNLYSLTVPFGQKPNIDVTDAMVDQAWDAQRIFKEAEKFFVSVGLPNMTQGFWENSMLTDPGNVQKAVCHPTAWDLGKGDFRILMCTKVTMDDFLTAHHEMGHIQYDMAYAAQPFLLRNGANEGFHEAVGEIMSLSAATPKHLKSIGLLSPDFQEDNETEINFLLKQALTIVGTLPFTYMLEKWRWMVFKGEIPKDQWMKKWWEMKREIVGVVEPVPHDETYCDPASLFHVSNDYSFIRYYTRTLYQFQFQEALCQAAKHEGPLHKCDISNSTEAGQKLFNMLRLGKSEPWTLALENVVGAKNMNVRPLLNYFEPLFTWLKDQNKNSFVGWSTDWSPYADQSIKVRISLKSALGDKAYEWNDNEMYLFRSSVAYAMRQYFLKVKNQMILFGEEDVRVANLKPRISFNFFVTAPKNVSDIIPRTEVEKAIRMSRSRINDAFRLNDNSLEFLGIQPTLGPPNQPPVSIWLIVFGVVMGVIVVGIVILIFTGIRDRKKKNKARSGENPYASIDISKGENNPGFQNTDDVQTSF
Assay: radioligand binding; saturation binding of the radiopeptide (1-2000 nM, 5 MBq/nmol) on HEK-ACE2 cells, 1 h at 4 °C on ice, DMEM without supplements; non-specific binding determined with 20 µM DX600; n = 3
Conditions: one partner purified

- Kd: 90 nM
B1: [67Ga]Ga-DOTA-WJL-63 (peptide)
peptide: Ac-[dY]STQISRGFTRDSRGCGSGSGSK(DOTA)-NH2
modifications: bridge N-16; not fully specified (bridges); also: DOTA loaded with 67Ga
notes: WJL-63 with DOTA on the side chain of the C-terminal lysine; printed in three-letter code; Same peptide as m1 with a DOTA chelator and 67Ga; made on Rink amide resin, so the C-terminus should be an amide as in m1; also called radiolabeled DOTA-WJL-63; WJL-63 radiopeptide; source: synthetic peptide, DOTA conjugated, radiolabeled with gallium-67, used without further purification

From publication PMC13142116, “Development and structure-guided characterization of a novel ACE2-binding macrocyclic peptide” (Journal of Structural Biology: X, 2026)
